Reference: article doi:10.1101/2024.03.26.586525 (bioRxiv, 2024)
Where two headings read alike, the source gives them in different places.

Legend:
cryo-EM structure [1] = target: the molecule itself; assay: cryo-EM structure
cryo-EM structure [2] = target: the molecule itself; assay: cryo-EM structure; remark: listed apart in the source

B1: aldehyde dehydrogenase 4 (Ald4) (enzyme, S. cerevisiae (endogenous in SK1 cells), UniProt P46367 25-519, looked up)
chain: SHLPMTVPIKLPNGLEYEQPTGLFINNKFVPSKQNKTFEVINPSTEEEICHIYEGREDDVEEAVQAADRAFSNGSWNGIDPIDRGKALYRLAELIEQDKDVIASIETLDNGKAISSSRGDVDLVINYLKSSAGFADKIDGRMIDTGRTHFSYTKRQPLGVCGQIIPWNFPLLMWAWKIAPALVTGNTVVLKTAESTPLSALYVSKYIPQAGIPPGVINIVSGFGKIVGEAITNHPKIKKVAFTGSTATGRHIYQSAAAGLKKVTLELGGKSPNIVFADAELKKAVQNIILGIYYNSGEVCCAGSRVYVEESIYDKFIEEFKAASESIKVGDPFDESTFQGAQTSQMQLNKILKYVDIGKNEGATLITGGERLGSKGYFIKPTVFGDVKEDMRIVKEEIFGPVVTVTKFKSADEVINMANDSEYGLAAGIHTSNINTALKVADRVNAGTVWINTYNDFHHAVPFGGFNASGLGREMSVDALQNYLQVKAVRAKLDE
stoichiometry N (cryo-EM structure [1]): 4

B2: acetyl-coenzyme A synthetase 1 (Acs1) (enzyme, S. cerevisiae (endogenous in SK1 cells), UniProt Q01574 1-713, looked up)
chain: MSPSAVQSSKLEEQSSEIDKLKAKMSQSAATAQQKKEHEYEHLTSVKIVPQRPISDRLQPAIATHYSPHLDGLQDYQRLHKESIEDPAKFFGSKATQFLNWSKPFDKVFIPDPKTGRPSFQNNAWFLNGQLNACYNCVDRHALKTPNKKAIIFEGDEPGQGYSITYKELLEEVCQVAQVLTYSMGVRKGDTVAVYMPMVPEAIITLLAISRIGAIHSVVFAGFSSNSLRDRINDGDSKVVITTDESNRGGKVIETKRIVDDALRETPGVRHVLVYRKTNNPSVAFHAPRDLDWATEKKKYKTYYPCTPVDSEDPLFLLYTSGSTGAPKGVQHSTAGYLLGALLTMRYTFDTHQEDVFFTAGDIGWITGHTYVVYGPLLYGCATLVFEGTPAYPNYSRYWDIIDEHKVTQFYVAPTALRLLKRAGDSYIENHSLKSLRCLGSVGEPIAAEVWEWYSEKIGKNEIPIVDTYWQTESGSHLVTPLAGGVTPMKPGSASFPFFGIDAVVLDPNTGEELNTSHAEGVLAVKAAWPSFARTIWKNHDRYLDTYLNPYPGYYFTGDGAAKDKDGYIWILGRVDDVVNVSGHRLSTAEIEAAIIEDPIVAECAVVGFNDDLTGQAVAAFVVLKNKSSWSTATDDELQDIKKHLVFTVRKDIGPFAAPKLIILVDDLPKTRSGKIMRRILRKILAGESDQLGDVSTLSNPGIVRHLIDSVKL
stoichiometry N (cryo-EM structure [2]): 3
